Holding throughout (assay): yeast two-hybrid cotransformation in Y190
The target of assay [1] is T1, amino terminus of the GIRK1 subunit cloned into the vector pDBLeu (rat, UniProt P04386 1-147; P63251 1-80, limits assumed).
T1 construct: Yeast two-hybrid bait with the GIRK1 N terminus alone; also called N terminus of GIRK1
The text has this: (§1) The DNA (accession no.: U09243, EMBL datebase) coding for the carboxyl terminus or the amino terminus of the GIRK1 subunit was amplified by PCR starting from the plasmid “GIRK1NC-bait” using the primers GGIRK1-4s (5′-[…]-3′) and GGIRK1-as (5′-[…]-3′) or GIRK1-NC-s (5′ -[…]-3′) and GIRK1-N-as (5′-[…]-3′) and cloned into the vector pDBLeu. Each of the plasmids was cotransformed with the pPC86 plasmid. GIRK1NCprey2 (SEQ ID NO: 1 nucleotides 1011-1349) or with the plasmid GIRK1NCprey3 (SEQ ID NO: 1, nucleotides 500-1193) into the yeast strain Y190. […] It is evident that the interaction with Mogli takes place only in the presence of both intracellular portions of GIRK1.

Assay [2] deals with T2, carboxyl terminus of the GIRK1 subunit cloned into the vector pDBLeu (rat, UniProt P04386 1-147; P63251 180-501, limits assumed).
T2 construct: Yeast two-hybrid bait with the GIRK1 C terminus alone; also called C terminus of GIRK1
Description: as §1

The target in assay [3] is T3, GIRK1-NC-bait (GAL4-DNA binding domain fused to the N terminus of the GIRK1 subunit, a linker sequence GSSGSS … (rat, UniProt P04386 1-147; P63251 1-80; P63251 180-501, limits assumed).
T3 construct: Yeast two-hybrid bait in pDBLeu, expressed in yeast strain Y190
Description: as §1

Ends that are not written are not given here.

B1: GIRK1NCprey2 (nucleotides 1011-1349 of SEQ ID NO: 1, fragment of rat Mogli, in pPC86) (other)
chain: ESERRLHERESEIMELKSQLARMREDWIEEECHRVEAQLALKEARKEIKQLKQVIETMRSSLADKDKGIQKYFVDINIQNKKLESLLQSMEMAHNSSLRDELCLDFSFDSPE
notes: Residue range converted from the printed nucleotide range; also called prey plasmid; Mogli fragment
Take B1: the binding result in assay [1] and in assay [2] was “no binding” each time.

B2: nucleotide region 1011-1193 of SEQ ID NO: 1 (overlap of GIRK1NCprey2 and GIRK1NCprey3) cloned into the plasmid pPC86 (other, not shown: small tags and cut ends)
chain: ESERRLHERESEIMELKSQLARMREDWIEEECHRVEAQLALKEARKEIKQLKQVIETMRS
modifications: also: fused to GAL4 activation domain with pPC86 linker and tail residues
notes: Residue range converted from the printed nucleotide range; also called 1NCprey23o construct
Take B2: the binding result in assay [3] is “no binding”.

B3: GIRK1NCprey3 (nucleotides 500-1193 of SEQ ID NO: 1, fragment of rat Mogli, in pPC86) (other)
chain: RIGMVGEGNIQSARYKKESKGGIIKPGSEADFSSSSSTGSISAPEVHMSTTGNKRASFSRNRGPHGRSNGAPSHKSGSSPPSPREKDLVSMLCRNPLSPSNIHPSYAPSSPSSSNSGSYKGSDCSPVMRRSGRYMSCGENHGVKPPNPEQYLTPLQQKEVTVRHLRTKLKESERRLHERESEIMELKSQLARMREDWIEEECHRVEAQLALKEARKEIKQLKQVIETMRS
notes: as for B1
For B3, the binding result in assay [1] and in assay [2] was “no binding” each time.

The values above are taken from patent US20030124568A1 (published 2003).
